# US7294701B2, “Antibody fragment capable of modulating multidrug resistance and compositions and kits and methods using same” (Technion Research & Development Foundation Ltd., priority 2003, dated 2007)
# Several values for one entry are separate records, joined by “and”; a condition that tells them apart may be missing. Equal entries are not always repeated. Entries after “also recorded” stand apart in the source; their conditions may differ. Where two headings read alike, the source gives them in different places.
# How the values were obtained:
# [1] = biological target: T1, biotinylated Pgp-derived peptide (SEQ ID NO:1) (Homo sapiens, UniProt P08183); assay: saturation ELISA; conditions: interpolated, FIG. 1c
# T1 construct: made in house; host or cells: chemical synthesis
# Excerpt: The binding properties of A2 scFv were further characterized using a saturation ELISA. In this experiment, a biotinylated Pgp-derived peptide (SEQ ID NO:1) was bound to plates precoated with BSA-biotin and exposed to increasing amounts of A2 scFv.
# [2] = biological target: T2, Pgp drug-efflux activity in 2780^ADR cells (Homo sapiens, UniProt P08183)
# T2 sequence (P08183 whole entry): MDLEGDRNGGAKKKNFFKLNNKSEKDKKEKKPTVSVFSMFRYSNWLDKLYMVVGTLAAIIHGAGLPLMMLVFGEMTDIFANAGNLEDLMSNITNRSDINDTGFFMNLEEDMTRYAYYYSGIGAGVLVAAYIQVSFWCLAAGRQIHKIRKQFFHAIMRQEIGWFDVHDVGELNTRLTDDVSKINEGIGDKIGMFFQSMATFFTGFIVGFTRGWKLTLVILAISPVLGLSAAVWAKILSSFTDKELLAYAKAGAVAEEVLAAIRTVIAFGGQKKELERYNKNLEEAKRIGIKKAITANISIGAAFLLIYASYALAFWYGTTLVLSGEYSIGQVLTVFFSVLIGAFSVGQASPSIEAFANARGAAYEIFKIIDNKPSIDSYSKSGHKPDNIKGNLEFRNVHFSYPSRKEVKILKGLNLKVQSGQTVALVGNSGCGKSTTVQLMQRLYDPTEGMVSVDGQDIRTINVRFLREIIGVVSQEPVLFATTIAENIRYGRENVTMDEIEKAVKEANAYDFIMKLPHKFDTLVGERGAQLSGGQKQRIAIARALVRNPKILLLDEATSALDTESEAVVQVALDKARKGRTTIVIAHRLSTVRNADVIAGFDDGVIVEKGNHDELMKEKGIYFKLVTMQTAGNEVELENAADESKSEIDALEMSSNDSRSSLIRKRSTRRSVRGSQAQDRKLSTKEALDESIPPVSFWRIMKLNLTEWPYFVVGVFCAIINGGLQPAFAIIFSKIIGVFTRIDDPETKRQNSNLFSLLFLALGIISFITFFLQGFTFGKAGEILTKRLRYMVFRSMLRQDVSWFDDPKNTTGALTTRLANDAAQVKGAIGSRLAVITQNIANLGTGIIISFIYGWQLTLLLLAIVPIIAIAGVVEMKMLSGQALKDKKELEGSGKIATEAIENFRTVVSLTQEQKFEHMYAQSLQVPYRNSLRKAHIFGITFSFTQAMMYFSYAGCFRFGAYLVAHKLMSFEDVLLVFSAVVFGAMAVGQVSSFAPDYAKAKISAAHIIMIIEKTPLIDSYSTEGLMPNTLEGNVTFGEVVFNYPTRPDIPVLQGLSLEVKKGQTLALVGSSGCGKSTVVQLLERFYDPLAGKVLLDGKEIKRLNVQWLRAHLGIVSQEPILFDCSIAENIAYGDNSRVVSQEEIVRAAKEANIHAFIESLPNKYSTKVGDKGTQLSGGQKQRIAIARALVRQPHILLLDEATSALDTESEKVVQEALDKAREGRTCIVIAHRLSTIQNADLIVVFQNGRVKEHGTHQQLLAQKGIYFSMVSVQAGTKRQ
# [3] = biological target: T3, Pgp-derived peptide (SEQ ID NO:1) (Homo sapiens, UniProt P08183); assay: competition binding radio-immunoassay with [125I]-labeled A2 scFv; conditions: competition with [125I]-labeled A2 scFv, interpolated, FIG. 1d; read-out: concentration of cold competitor for 50% binding inhibition (affinity constant)
# T3 construct: made in house; host or cells: chemical synthesis
# Description: In a competition binding radio-immunoassay the purified A2 scFv (100 μg) was first labeled with [^125I] using the Bolton-Hunter reagent. The [^125I]-labeled A2 scFv antibody was added as a tracer (3-5×10^5 cpm/well) to a flexible microtiter plate, which had been pre-coated with BSA-biotin and the target peptide (SEQ ID NO:1), as described above. A non-labeled (i.e., cold) A2 scFv was then added, as a competitor, to the pre-coated plates at increasing concentrations. Plates were incubated for 1 hr at room temperature, then washed and analyzed by gamma counter.
# 2780 cells = assay: calcein-AM chromophore efflux assay, drug-sensitive cells; assay type: cell-based, human; conditions: 2780, fluorometer, FIG. 4c
# [4] = system: non-target MRP1 control peptide; assay: ELISA binding specificity, non-target control peptide; conditions: FIG. 1b
# Description: (§1) The binding specificity of the purified A2 scFv antibody was determined via ELISA. A biotinylated target peptide having the amino acid sequence of SEQ ID NO:1, or a non-target MRP1 control peptide (provided at 10 μg in 100 μl) were each immobilized onto a flexible microtiter plate using BSA-biotin-streptavidin. A purified A2 scFv was then added, at different concentrations, to the peptide-coated plate and was detected with an anti Myc tag-HRP conjugate antibody.
# [5] = biological target: T2, Pgp drug-efflux activity in 2780^ADR cells; assay: calcein-AM chromophore efflux assay; conditions: antibody given before calcein, FIGS. 3c, 3e
# [6] = system: drug-sensitive cells 2780; assay: immuno-histochemical staining; assay type: binding, human; conditions: 2780, A2 scFv 0.2 mg/ml, FIG. 2f
# Description: (§2) Drug sensitive cells and MDR cells were grown to 50% confluence on glass slides, pre-coated with 4% gelatin in PBS, fixed with 2% formaldehyde in PBS, blocked with 1% BSA in PBS at room temperature, then followed by 90 min incubation with A2 scFv (0.2 mg/ml) in PBS containing 1% BSA (room temperature). The slides were then covered with HRP-labeled anti-Myc-antibody (1:500, in PBS containing 1% BSA) for 1 hr, washes with water, then covered with peroxidase substrate, (AEC) for 2-3 min. Slides were then washed with water and counter staining was performed with hematoxylin.
# [7] = system: drug-sensitive cells KB3-1; assay: immuno-histochemical staining; assay type: binding, human; conditions: drug-sensitive KB3-1, A2 scFv 0.2 mg/ml, FIG. 2h
# Description: as §2
# 2780^ADR cells = assay: viability of doxorubicin-exposed cells by [3H]-leucine incorporation; assay type: cell-based, human; conditions: A2 scFv 0.2 mg/ml before 5-10 μM doxorubicin
# Description: Cells were pre-incubated with A2 scFv at a concentration of 0.2 mg/ml, then exposed to 5-10 μM of doxirubicin and then analyzed for [^3H]Leucine content.
# [8] = system: drug-sensitive carcinoma cells KB3-1; assay: immunofluorescence flow-cytometer analysis of cell binding; set-up: species or system human; conditions: KB3-1, A2 scFv 50 μg/ml, FIG. 2c
# Description: (§3) In another series of experiments, the reactivity and specificity of A2 scFv to Pgp, expressed on the surface of MDR cells, was evaluated. […] The MDR cell lines and the drug-sensitive cell lines used in these experiments are described in Table 2 below.
# (§4) Cells growing on six well tissue culture plates were washed twice followed by incubation with soluble purified A2 scFv (50 μg/ml) for 90 minutes on ice. Detection was with anti-Myc (30 μg/ml) and FITC-labeled anti-mouse IgG (1:1000, Jackson). Detection of fluorescent cells was performed on a FACScalibur (Becton Dickinson).
# [9] = system: drug-sensitive ovarian carcinoma cells 2780; assay: as above; set-up: species or system human; conditions: 2780, A2 scFv 50 μg/ml, FIG. 2a
# Description: as §3, §4
# [10] = biological target: T4, Pgp drug-efflux activity in EMT^R1 cells (Cricetulus griseus, UniProt P21448); assay: calcein-AM chromophore efflux assay; assay type: cell-based, rodent (CHO); conditions: EMT^R1, fluorometer, FIG. 4a
# T4 construct: a rodent (CHO) MDR cell line EMT^R1; endogenous in cells; host or cells: EMT^R1 (CHO, parental line A8)
# T4 sequence (P21448 whole entry): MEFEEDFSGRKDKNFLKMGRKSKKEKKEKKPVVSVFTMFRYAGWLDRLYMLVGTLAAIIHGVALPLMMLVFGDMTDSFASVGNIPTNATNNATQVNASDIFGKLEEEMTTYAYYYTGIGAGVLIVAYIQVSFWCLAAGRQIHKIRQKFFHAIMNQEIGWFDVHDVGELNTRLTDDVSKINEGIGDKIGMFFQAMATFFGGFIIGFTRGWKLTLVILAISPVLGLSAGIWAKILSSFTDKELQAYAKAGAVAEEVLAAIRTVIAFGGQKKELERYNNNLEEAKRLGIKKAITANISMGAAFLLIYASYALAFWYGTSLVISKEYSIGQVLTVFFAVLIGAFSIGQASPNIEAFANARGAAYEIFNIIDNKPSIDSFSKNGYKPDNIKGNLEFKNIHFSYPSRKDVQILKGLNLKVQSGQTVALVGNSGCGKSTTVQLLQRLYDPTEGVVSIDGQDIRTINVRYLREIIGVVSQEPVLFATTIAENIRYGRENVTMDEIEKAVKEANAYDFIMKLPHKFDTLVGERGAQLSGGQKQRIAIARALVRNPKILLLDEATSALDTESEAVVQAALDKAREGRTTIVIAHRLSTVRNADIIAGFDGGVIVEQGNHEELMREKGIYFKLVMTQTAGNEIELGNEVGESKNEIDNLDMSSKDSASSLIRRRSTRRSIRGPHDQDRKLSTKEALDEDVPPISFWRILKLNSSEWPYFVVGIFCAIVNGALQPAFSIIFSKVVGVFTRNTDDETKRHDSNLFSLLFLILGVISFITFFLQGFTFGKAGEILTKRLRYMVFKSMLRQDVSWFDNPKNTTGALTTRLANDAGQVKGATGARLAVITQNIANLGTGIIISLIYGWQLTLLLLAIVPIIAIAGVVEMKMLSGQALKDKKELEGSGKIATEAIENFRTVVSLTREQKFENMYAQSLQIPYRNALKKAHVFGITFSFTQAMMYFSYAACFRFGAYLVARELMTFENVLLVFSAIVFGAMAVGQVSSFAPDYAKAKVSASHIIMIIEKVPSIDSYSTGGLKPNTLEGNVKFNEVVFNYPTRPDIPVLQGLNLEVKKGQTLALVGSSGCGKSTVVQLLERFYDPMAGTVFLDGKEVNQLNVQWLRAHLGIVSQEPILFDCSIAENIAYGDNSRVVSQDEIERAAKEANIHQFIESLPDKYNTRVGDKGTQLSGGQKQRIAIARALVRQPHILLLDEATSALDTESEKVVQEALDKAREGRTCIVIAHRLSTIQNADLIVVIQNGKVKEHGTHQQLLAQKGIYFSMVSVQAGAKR
# [11] = biological target: T5, Pgp on MDR ovarian carcinoma cells 2780^ADR (Homo sapiens, UniProt P08183); assay: immuno-histochemical staining; assay type: binding; conditions: A2 scFv 0.2 mg/ml, FIG. 2e
# T5 construct: MDR and Pgp-overexpressing ovarian carcinoma cells 2780^ADR; endogenous in cells; host or cells: 2780^ADR (drug-selected human ovarian carcinoma)
# T5 sequence (P08183 whole entry): as the sequence (P08183 whole entry) above
# Description: as §2
# [12] = biological target: T6, Pgp on MDR carcinoma cells KBV-1 (Homo sapiens, UniProt P08183); assay: immuno-histochemical staining; assay type: binding; conditions: MDR KBV-1, A2 scFv 0.2 mg/ml, FIG. 2g
# T6 construct: MDR and Pgp-overexpressing human carcinoma cells KBV-1; endogenous in cells; host or cells: KBV-1 (KB-V1; drug-selected human epidermoid carcinoma, derived from KB3-1)
# Description: as §2
# [13] = biological target: T5, Pgp on MDR ovarian carcinoma cells 2780^ADR; assay: immunofluorescence flow-cytometer analysis of cell binding; conditions: A2 scFv 50 μg/ml, FIG. 2b
# Description: as §3, §4
# [14] = biological target: T7, Pgp on MDR epidermoid carcinoma cells KBV-1 (Homo sapiens, UniProt P08183); assay: as above; conditions: KBV-1, A2 scFv 50 μg/ml, FIG. 2d
# T7 construct: MDR and Pgp-overexpressing human carcinoma cells KBV-1; endogenous in cells; host or cells: KBV-1 (KB-V1; drug-selected human epidermoid carcinoma, derived from KB3-1)
# T7 sequence (P08183 whole entry): as above
# Description: as §3, §4
# KB3-1 cells = assay: calcein-AM chromophore efflux assay, drug-sensitive cells; assay type: cell-based, human; conditions: KB3-1, fluorometer, FIG. 4d
# A8 cells = assay: as above; assay type: cell-based, rodent (CHO); conditions: A8, fluorometer, FIG. 4e
# streptavidin = streptavidin (Streptomyces avidinii, UniProt P22629); assay: ELISA binding specificity, streptavidin; conditions: FIG. 1b
# Description: as §1
molecule,measurement,setting,value
"A2 scFv: novel anti-Pgp single-chain Fv, about 30 kDa, encoded by SEQ ID NO:2, directed to first extracellular loop peptide SEQ ID NO:1 (protein, A2 single chain Fv coding sequence) QVQLQQSGPDLVKPGASVKISCKASGYSFTGYYMHWVKQSHGKSLEWIGRANPNNGGTSYNQKFKGKAILTVDKSSSTAYMELRSLTSEDSAVYYCARWDGAYWGQGTLVTVSSGGGGSGGGGSGGGGSDVVMTQTPLSLPVSLGDQASISCRSSQSIVHSNGNTYLEWYLQKPGQSPKLLIYKVSNRFSGVPDRFSGSGSGTDFTLKISRVEAEDLGVYYCFQGSHVPFTFGSGTKLELK",Kd,"[1]; listed as A2, read-out: concentration required for 50% of maximal binding (affinity constant)",~150 nM
same,Kd,[1]; read-out: concentration required for 50% of maximal binding (affinity constant),150 nM and ~150 nM
same,IC50,[2],2600 nM
same,concentration of maximal inhibitory activity,[2],100 µg/mL
same,Kd,[3],130 nM and ~130 nM
same,effect on calcein uptake in drug-sensitive cells,2780 cells,did not affect the level of calcein accumulation; also recorded: no effect
same,binding to biotinylated non-target peptide,[4],did not react
same,effect on calcein uptake / drug efflux activity,[5],substantial increase in fluorescence intensity; also recorded: substantially inhibited drug efflux activity; also recorded: positive dose-response effect
same,immuno-histochemical staining of cells,[6],did not stain; also recorded: no antibody-cell reaction
same,immuno-histochemical staining of cells,[7],did not stain; also recorded: no antibody-cell reaction
same,viability of cells exposed to doxorubicin,2780^ADR cells,effectively reduced the viability of cells; also recorded: substantial loss of viability of cells
same,reactivity with cells (flow cytometer),[8],no reactivity; also recorded: no effect on fluorescent intensity
same,reactivity with cells (flow cytometer),[9],no reactivity; also recorded: no effect on fluorescent intensity
same,effect on calcein uptake,[10],substantial increases in calcein accumulation; also recorded: substantially higher levels of fluorescence
same,immuno-histochemical staining of cells,[11],intense in situ staining; also recorded: positive antibody-cell reaction
same,immuno-histochemical staining of cells,[12],intense in situ staining; also recorded: positive antibody-cell reaction
same,increase in fluorescent intensity,[13],10 fold
same,reactivity with cells (flow cytometer),[13],strong reactivity
same,reactivity with cells (flow cytometer),[14],strong reactivity; also recorded: substantial increase in fluorescent intensity
same,effect on calcein uptake in drug-sensitive cells,KB3-1 cells,did not affect the level of calcein accumulation; also recorded: no effect
same,effect on calcein uptake in drug-sensitive cells,A8 cells,did not affect the level of calcein accumulation; also recorded: no effect
same,binding to streptavidin,streptavidin,did not react
